Measurements: PMC6141585

Molecular target: actin filaments in growth cones of cultured hippocampal neurons (mouse (endogenous in cultured hippocampal neurons))
Experiment: FRET or BRET; acceptor photobleaching FRET in growth cones of fixed 2 DIV hippocampal neurons; donor GFP or GFP-tagged construct, acceptor TRITC-phalloidin on actin filaments

- FRET efficiency: 52%
Substance: MAP6-E-GFP (rat MAP6-E fused to GFP) (from UniProt Q63560 1-614) (natural protein)
